Data on one molecule can be found in patent US20210388031A1 (New Jersey Institute of Technology, published 2021).

This assay has as its target SARS-CoV-2 Spike protein on live virus (SARS-CoV-2, UniProt P0DTC2). Nature of the assay: cell-based or functional assay.

ESLSLSLSLSLSLEGSALEEGQLKTFLDKFMHELEDLLYQLAL [ESBP2]: the “IC50 of reduction in live-virus infectivity” value is < 10 nM.
